Results as given in article PMC2423479.

Target: Pgc ORF1, (His)6-tagged, 71-residue oligopeptide encoded by Drosophila polar granule component (pgc) ORF1 (Drosophila melanogaster)
Assay: SEC; refolded (His)6-tagged Pgc ORF1 on a size-exclusion column; two species migrating at 18 kDa and 36 kDa; dimer to monomers; column and buffer not stated

stoichiometry N: 2
Substance: Pgc ORF1, (His)6-tagged, 71-residue oligopeptide encoded by Drosophila polar granule component (pgc) ORF1 (natural protein)
